B1: Tuftelin-interacting protein 11 (Homo sapiens), Q9UBB9 (parent)
chain: MSLSHLYRDGEGRIDDDDDERENFEITDWDLQNEFNPNRQRHWQTKEEATYGVWAERDSDDERPSFGGKRARDYSAPVNFISAGLKKGAAEEAELEDSDDEEKPVKQDDFPKDFGPRKLKTGGNFKPSQKGFAGGTKSFMDFGSWERHTKGIGQKLLQKMGYVPGRGLGKNAQGIINPIEAKQRKGKGAVGAYGSERTTQSMQDFPVVDSEEEAEEEFQKELSQWRKDPSGSKKKPKYSYKTVEELKAKGRISKKLTAPQKELSQVKVIDMTGREQKVYYSYSQISHKHNVPDDGLPLQSQQLPQSGKEAKAPGFALPELEHNLQLLIDLTEQEIIQNDRQLQYERDMVVNLFHELEKMTEVLDHEERVISNLSKVLEMVEECERRMQPDCSNPLTLDECARIFETLQDKYYEEYRMSDRVDLAVAIVYPLMKEYFKEWDPLKDCTYGTEIISKWKSLLENDQLLSHGGQDLSADAFHRLIWEVWMPFVRNIVTQWQPRNCDPMVDFLDSWVHIIPVWILDNILDQLIFPKLQKEVENWNPLTDTVPIHSWIHPWLPLMQARLEPLYSPIRSKLSSALQKWHPSDSSAKLILQPWKDVFTPGSWEAFMVKNIVPKLGMCLGELVINPHQQHMDAFYWVIDWEGMISVSSLVGLLEKHFFPKWLQVLCSWLSNSPNYEEITKWYLGWKSMFSDQVLAHPSVKDKFNEALDIMNRAVSSNVGAYMQPGARENIAYLTHTERRKDFQYEAMQERREAENMAQRGIGVAASSVPMNFKDLIETKAEEHNIVFMPVIGKRHEGKQLYTFGRIVIYIDRGVVFVQGEKTWVPTSLQSLIDMAK
partner: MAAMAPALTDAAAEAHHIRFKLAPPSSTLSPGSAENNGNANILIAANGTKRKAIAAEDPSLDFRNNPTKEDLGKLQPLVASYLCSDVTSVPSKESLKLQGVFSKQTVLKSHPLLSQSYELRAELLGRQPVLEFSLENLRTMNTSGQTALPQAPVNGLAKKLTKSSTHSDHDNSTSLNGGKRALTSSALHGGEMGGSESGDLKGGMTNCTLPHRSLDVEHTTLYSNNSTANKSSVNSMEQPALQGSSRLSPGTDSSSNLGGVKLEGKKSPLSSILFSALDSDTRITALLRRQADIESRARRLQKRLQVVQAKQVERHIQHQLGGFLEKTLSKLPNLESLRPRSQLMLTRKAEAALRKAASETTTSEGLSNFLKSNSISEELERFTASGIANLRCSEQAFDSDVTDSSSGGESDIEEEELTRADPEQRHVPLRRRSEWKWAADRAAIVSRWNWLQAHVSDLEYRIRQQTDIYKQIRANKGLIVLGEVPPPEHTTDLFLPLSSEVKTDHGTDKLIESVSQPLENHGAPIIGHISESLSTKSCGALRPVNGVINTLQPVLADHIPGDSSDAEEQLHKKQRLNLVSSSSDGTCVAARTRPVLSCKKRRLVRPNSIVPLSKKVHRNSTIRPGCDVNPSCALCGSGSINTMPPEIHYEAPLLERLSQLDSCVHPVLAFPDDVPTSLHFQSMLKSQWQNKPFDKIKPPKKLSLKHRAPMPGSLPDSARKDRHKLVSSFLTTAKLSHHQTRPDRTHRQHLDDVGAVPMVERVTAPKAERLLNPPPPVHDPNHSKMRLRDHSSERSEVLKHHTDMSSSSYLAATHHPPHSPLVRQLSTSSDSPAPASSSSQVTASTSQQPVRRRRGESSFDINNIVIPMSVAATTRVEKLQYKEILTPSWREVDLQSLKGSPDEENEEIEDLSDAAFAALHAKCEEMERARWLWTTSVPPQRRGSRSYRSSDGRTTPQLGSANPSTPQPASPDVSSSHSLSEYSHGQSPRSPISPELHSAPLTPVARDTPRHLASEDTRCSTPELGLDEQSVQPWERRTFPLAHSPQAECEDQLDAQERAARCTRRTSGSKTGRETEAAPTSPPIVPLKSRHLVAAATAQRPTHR
B2: Endothelial transcription factor GATA-2 (Homo sapiens), P23769 (parent)
chain: MEVAPEQPRWMAHPAVLNAQHPDSHHPGLAHNYMEPAQLLPPDEVDVFFNHLDSQGNPYYANPAHARARVSYSPAHARLTGGQMCRPHLLHSPGLPWLDGGKAALSAAAAHHHNPWTVSPFSKTPLHPSAAGGPGGPLSVYPGAGGGSGGGSGSSVASLTPTAAHSGSHLFGFPPTPPKEVSPDPSTTGAASPASSSAGGSAARGEDKDGVKYQVSLTESMKMESGSPLRPGLATMGTQPATHHPIPTYPSYVPAAAHDYSSGLFHPGGFLGGPASSFTPKQRSKARSCSEGRECVNCGATATPLWRRDGTGHYLCNACGLYHKMNGQNRPLIKPKRRLSAARRAGTCCANCQTTTTTLWRRNANGDPVCNACGLYYKLHNVNRPLTMKKEGIQTRNRKMSNKSKKSKKGAECFEELSKCMQEKSSPFSAAALAGHMAPVGHLPPFSHSGHILPTPTPIHPSSSLSFGHPHPSSMVTAMG
partner: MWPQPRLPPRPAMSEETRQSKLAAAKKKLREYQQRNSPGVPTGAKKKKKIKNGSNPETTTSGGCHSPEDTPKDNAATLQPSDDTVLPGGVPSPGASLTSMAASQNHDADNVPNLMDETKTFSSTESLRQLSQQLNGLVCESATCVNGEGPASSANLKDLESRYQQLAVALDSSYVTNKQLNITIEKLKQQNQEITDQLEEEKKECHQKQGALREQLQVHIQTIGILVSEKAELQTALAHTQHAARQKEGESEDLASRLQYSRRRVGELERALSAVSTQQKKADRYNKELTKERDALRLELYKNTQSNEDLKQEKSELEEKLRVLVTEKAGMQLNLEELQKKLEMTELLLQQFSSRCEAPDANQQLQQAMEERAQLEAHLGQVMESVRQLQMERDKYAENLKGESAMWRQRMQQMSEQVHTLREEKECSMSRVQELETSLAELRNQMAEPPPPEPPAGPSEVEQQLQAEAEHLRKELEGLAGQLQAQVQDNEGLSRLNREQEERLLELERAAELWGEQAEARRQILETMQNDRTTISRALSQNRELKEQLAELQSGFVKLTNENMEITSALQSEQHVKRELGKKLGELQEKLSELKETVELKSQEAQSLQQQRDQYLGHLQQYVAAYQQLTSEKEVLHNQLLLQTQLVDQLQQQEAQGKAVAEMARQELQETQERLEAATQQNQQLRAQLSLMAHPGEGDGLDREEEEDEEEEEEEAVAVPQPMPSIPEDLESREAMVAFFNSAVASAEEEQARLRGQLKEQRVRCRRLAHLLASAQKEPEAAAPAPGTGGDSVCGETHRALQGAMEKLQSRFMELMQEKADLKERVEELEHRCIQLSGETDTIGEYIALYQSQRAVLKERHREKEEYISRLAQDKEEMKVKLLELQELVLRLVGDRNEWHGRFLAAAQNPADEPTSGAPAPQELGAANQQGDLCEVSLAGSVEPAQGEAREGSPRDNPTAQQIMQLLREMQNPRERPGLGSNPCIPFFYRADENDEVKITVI
B3: Proteasome subunit beta type-1 (Homo sapiens), P20618 (parent)
chain: MLSSTAMYSAPGRDLGMEPHRAAGPLQLRFSPYVFNGGTILAIAGEDFAIVASDTRLSEGFSIHTRDSPKCYKLTDKTVIGCSGFHGDCLTLTKIIEARLKMYKHSNNKAMTTGAIAAMLSTILYSRRFFPYYVYNIIGGLDEEGKGAVYSFDPVGSYQRDSFKAGGSASAMLQPLLDNQVGFKNMQNVEHVPLSLDRAMRLVKDVFISAAERDVYTGDALRICIVTKEGIREETVSLRKD
partner: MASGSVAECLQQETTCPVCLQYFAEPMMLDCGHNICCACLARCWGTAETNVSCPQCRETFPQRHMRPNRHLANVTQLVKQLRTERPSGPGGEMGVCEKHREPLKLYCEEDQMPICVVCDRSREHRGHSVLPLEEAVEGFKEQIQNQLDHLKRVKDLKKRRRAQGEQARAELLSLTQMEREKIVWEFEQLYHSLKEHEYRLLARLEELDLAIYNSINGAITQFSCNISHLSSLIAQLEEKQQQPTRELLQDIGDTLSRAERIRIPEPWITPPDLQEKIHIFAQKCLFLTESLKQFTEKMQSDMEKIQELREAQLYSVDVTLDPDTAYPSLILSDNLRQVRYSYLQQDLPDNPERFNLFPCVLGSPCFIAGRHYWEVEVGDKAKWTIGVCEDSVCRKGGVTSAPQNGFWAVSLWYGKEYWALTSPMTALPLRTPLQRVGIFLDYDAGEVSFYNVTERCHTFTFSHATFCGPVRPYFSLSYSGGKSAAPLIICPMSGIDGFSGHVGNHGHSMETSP
B4: Microtubule-associated tumor suppressor candidate 2 (Homo sapiens), Q5JR59-3 (parent)
chain: MGHCCCKPYNCLQCLDKTNESALVKEKELSIELANIRDEVAFHTAKCEKLQKEKEELERRFEDEVKRLGWQQQAELQELEERLQLQFEAEMARLQEEHGDQLLSIRCQHQEQVEDLTASHDAALLEMENNHTVAITILQDDHDHKVQELMSTHELEKKELEENFEKLRLSLQDQVDTLTFQSQSLRDRARRFEEALRKNTEEQLEIALAPYQHLEEDMKSLKQVLEMKNQQIHEQEKKILELEKLAEKNIILEEKIQVLQQQNEDLKARIDQNTVVTRQLSEENANLQEYVEKETQEKKRLSRTNEELLWKLQTGDPTSPIKLSPTSPVYRGSSSGPSSPARVSTTPR
partner: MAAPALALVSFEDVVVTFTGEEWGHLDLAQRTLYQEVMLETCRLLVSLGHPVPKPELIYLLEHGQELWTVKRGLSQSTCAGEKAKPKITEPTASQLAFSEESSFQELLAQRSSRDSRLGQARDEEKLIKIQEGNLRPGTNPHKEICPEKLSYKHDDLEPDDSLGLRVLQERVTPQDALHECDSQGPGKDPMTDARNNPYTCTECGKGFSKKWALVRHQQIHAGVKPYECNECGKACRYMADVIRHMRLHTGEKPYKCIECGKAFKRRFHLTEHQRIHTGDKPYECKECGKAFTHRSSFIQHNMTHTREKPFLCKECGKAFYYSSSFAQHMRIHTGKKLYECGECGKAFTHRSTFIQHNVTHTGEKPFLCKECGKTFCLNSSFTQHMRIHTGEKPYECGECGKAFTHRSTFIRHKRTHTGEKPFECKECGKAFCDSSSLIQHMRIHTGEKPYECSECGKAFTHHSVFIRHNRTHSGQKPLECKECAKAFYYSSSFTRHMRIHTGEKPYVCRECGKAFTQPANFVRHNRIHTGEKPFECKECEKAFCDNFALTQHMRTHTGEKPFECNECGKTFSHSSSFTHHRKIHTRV
B5: Keratin, type II cytoskeletal 6A (Homo sapiens), P02538 (parent)
chain: MASTSTTIRSHSSSRRGFSANSARLPGVSRSGFSSVSVSRSRGSGGLGGACGGAGFGSRSLYGLGGSKRISIGGGSCAISGGYGSRAGGSYGFGGAGSGFGFGGGAGIGFGLGGGAGLAGGFGGPGFPVCPPGGIQEVTVNQSLLTPLNLQIDPTIQRVRAEEREQIKTLNNKFASFIDKVRFLEQQNKVLETKWTLLQEQGTKTVRQNLEPLFEQYINNLRRQLDSIVGERGRLDSELRGMQDLVEDFKNKYEDEINKRTAAENEFVTLKKDVDAAYMNKVELQAKADTLTDEINFLRALYDAELSQMQTHISDTSVVLSMDNNRNLDLDSIIAEVKAQYEEIAQRSRAEAESWYQTKYEELQVTAGRHGDDLRNTKQEIAEINRMIQRLRSEIDHVKKQCANLQAAIADAEQRGEMALKDAKNKLEGLEDALQKAKQDLARLLKEYQELMNVKLALDVEIATYRKLLEGEECRLNGEGVGQVNISVVQSTVSSGYGGASGVGSGLGLGGGSSYSYGSGLGVGGGFSSSSGRAIGGGLSSVGGGSSTIKYTTTSSSSRKSYKH
partner: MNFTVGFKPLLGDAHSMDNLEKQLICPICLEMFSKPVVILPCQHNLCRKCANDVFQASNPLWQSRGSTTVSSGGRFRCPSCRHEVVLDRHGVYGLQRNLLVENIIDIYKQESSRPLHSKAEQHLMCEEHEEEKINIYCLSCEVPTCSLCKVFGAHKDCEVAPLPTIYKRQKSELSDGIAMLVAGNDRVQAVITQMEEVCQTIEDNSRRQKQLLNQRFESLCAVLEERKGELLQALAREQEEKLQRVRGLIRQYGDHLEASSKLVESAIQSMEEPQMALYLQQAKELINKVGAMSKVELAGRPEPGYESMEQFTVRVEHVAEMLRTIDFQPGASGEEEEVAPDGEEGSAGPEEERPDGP

Variants of: B1
Settings: with kanl1_human KANSL1, Q7Z3B3

| effect of a mutation on the interaction | Variant |
| --- | --- |
| with no effect | R8Q |

Variants of: B2
Settings: with goga2_human GOLGA2, Q08379

| effect of a mutation on the interaction | Variant |
| --- | --- |
| with no effect | A164T |

Variants of: B3
Settings: with tri27_human TRIM27, P14373

| effect of a mutation on the interaction | Variant |
| --- | --- |
| with no effect | P11A |

Variants of: B4
Settings: with zn599_human ZNF599, Q96NL3

| effect of a mutation on the interaction | Variant |
| --- | --- |
| with no effect | A89V |

Variants of: B5
Settings: with tri54_human TRIM54, Q9BYV2

| effect of a mutation on the interaction | Variant |
| --- | --- |
| with no effect | R559G |
| with no effect | R415H |
